Assay results: the supplement of paper PMC9170038

Tested on: MS2 coat protein
Assay: apparent KD of MS2 coat protein; designed switch direction (-1 OFF switch, 1 ON switch): -1; higher = weaker reporter binding
Procedure, shortened: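 Designed RNA switches with common flanks were made on Illumina chips by stalled E. coli RNA polymerase. Titration with SNAP-549-labelled MS2 coat protein doubled from 0.7 or 1.5 nM up to 3 µM. Apparent KD is each design's median over clusters after curve-fitting normalised fluorescence.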

[1] = Eterna round: R95, input ligand: FMN 200 uM
[2] = Eterna round: R95, input ligand: microRNA oligo, concentration not stated
[3] = Eterna round: R95, input ligand: none
[4] = input ligand: microRNA oligo, concentration not stated

Sequence | apparent KD of MS2 coat protein [1] [nM] | apparent KD of MS2 coat protein [2] [nM] | apparent KD of MS2 coat protein [3] [nM] | apparent KD of MS2 coat protein (input ligand: FMN 200 uM) [nM] | apparent KD of MS2 coat protein [4] [nM] | apparent KD of MS2 coat protein (input ligand: none) [nM]
CUGAUGUCAGGAUAUCAGAAAAGGCACAAGAACGCGCCAAAUGAGAAGGGACAUGAGGAUCACCCAUGUAAAAC [Reena] (puzzle: Exclusion 4) | 87.1 | 28.2 | 27.9 | – | – | –
CUGAUGUCAGGAUAUCAGAAAAGGUGCGAGGACGCACCAAAUGAGAAGGGACAUGAGGAUCACCCAUGUAAAAC [Inbeenen] (puzzle: Exclusion 4) | – | 19.2 | – | – | – | –
CUGAUGUGAGGAUAUCGGGCUACGGCCAGGCCGCUAGCAUUCGAGAAGGCACAUGAGGAUCACCCAUGUGAGAA [Laquzara] (Eterna round: R96, puzzle: Exclusion 4) | – | – | – | 230 | 112 | 153
CUGAUGUGAGGAUAUCUAAAAGAAACUGGGCAAAAUACCAGAGAGAAGGCACAUGAGGAUCACCCAUGUAACGA [Rabigeri] (puzzle: Exclusion 4) | – | 19.5 | – | – | – | –
CUGAUGUUAGGAUAUCAGGCACCCGCCACUGGCAGGGCGCAUGAGAAGGGACAUGAGGAUCACCCAUGUAGUAA [Gelaoren] (puzzle: Exclusion 4) | – | 21.3 | – | – | – | –
CUGCUCCGUGUAGGAUAUGCGCGCACCACCCGCGCAGAAGGACAUGAGGAUCACCCAUGUAUGUUAUUAUCACGUGUGGCGCGC [Design 38] (Eterna round: R96, puzzle: Exclusion NG 1) | – | – | – | 12.6 | 11.1 | 15.9
CUGCUGGAGUUUCGCUUUGGUCGUACAUGAGGAUCACCCAUGUAGGAUAUGGUAAAAUUCGCCUGCUAGAAGGAUAGAGUGGUC [salish99_ExNG3_r04_620] (Eterna round: R96, puzzle: Exclusion NG 3) | – | – | – | 48.1 | 38.6 | 42.3
CUGCUGGAGUUUUGCUUUGGUCGUACAUGAGGAUCACCCAUGUAGGAUAUGGUAAAAUUCGCCUGCUAGAAGGAUAGAGUGGUC [salish99_ExNG3_r04_621] (Eterna round: R96, puzzle: Exclusion NG 3) | – | – | – | 35.5 | 23 | 32.4
CUGGGCCGAGGAUAUAUUAUGUGAAACAUGAGGAUCACCCAUGUAAUAUGAUGGAUGUAAAUAGAAGGCGGUCUAG [Mat - Exclusion 5 - JL mod - D27] (puzzle: Exclusion 5) | 28.2 | 17.4 | 21.3 | – | – | –
CUGGUCCGAGGAUAUAUGAUGUGAAACAUGAGGAUCACCCAUGUAAUAUUAUGGAUGAAAAUAGAAGGCGGACUAG [Mat - Exclusion 5 - JL mod - D37] (puzzle: Exclusion 5) | 52.6 | 66.1 | 62.7 | – | – | –
CUGGUCCGAGGAUAUAUUAUGUGAAACAUGAGGAUCACCCAUGUUAUAUGAUGGAUGUAAAUAGAAGGCGGACUAG [JL-ex5-3.14] (puzzle: Exclusion 5) | 27.6 | 36.3 | 40.3 | – | – | –
CUGGUCCGAGGAUAUAUUAUGUGAUACAUGAGGAUCACCCAUGUUAUAUGAUGGAUGUUAGUAGAAGGCGGACUAC [salish99_ex5_r3_001] (puzzle: Exclusion 5) | 102 | 69.9 | 101 | – | – | –
CUGGUGUGAGGAUAUCAGGACACGUAAGCGGGCGUGUCAAAUGAGAAGGCACAUGAGGAUCACCCAUGUGGGAC [Atbeceesxe] (puzzle: Exclusion 4) | – | 27.8 | – | – | – | –
CUGUACAUAGGAUAUAGUUGCUUUUACAUGAGGAUCACCCAUGUCACUCCUCUCUCUCUUCUAGAAGGAUGUUUCU [JR_E5_Sub009] (puzzle: Exclusion 5) | – | 68.4 | – | – | – | –
CUGUACAUAGGAUAUAGUUGUUUUUACAUGAGGAUCACCCAUGUUACUCCUCUCUCUCUUCUAGAAGGAUGUUUCU [JR_E5_Sub008] (puzzle: Exclusion 5) | – | 63.8 | – | – | – | –
CUGUACUGAGGAUAUACAUGAGGAUCACCCAUGUGCUCCAGCUAGGAAACUAGCAAAAGUAGAAGGCAGUACAG [Mat - Exclusion 3 - Eli Mod - D60] (Eterna round: R97, puzzle: Exclusion 3) | – | – | – | 620 | – | 62.5

Sequence | apparent KD of MS2 coat protein [1] [nM] | apparent KD of MS2 coat protein [2] [nM] | apparent KD of MS2 coat protein [3] [nM] | apparent KD of MS2 coat protein (input ligand: FMN 200 uM) [nM] | apparent KD of MS2 coat protein [4] [nM] | apparent KD of MS2 coat protein (input ligand: none) [nM]
CUGUGCACGCUGCGGUCCUACAUGAGGAUCACCCAUGUGGUCUGGUGGCGUGGGUCACCGGACUUGGCUCGUCUUGG [salish99_S_TOV1_R5_063] (Eterna round: R97, puzzle: Sensor, turn-off variant 1) | – | – | – | 22 | – | 23
CUGUUUUCCGCAGGAUAUGCUCCUCCAUUAUUAGCAGAAGGGCGUUGAACAUGAGGAUCACCCAUGUAUGUAAUUGAUUAUUGC [JR_ExcNG1_Sub071] (Eterna round: R96, puzzle: Exclusion NG 1) | – | – | – | 54.3 | 26.3 | 36.3
CUGUUUUCCGCAGGAUAUGCUCCUCCAUUAUUUGCAGAAGGGCGUUGAACAUGAGGAUCACCCAUGUAUGUAAUUGAUUAUUGC [JR_ExcNG1_Sub070] (Eterna round: R96, puzzle: Exclusion NG 1) | – | – | – | 27.7 | 27.5 | 33.8
CUUAAUUGUGACAUGGGUGACAUGAGGAUCACCCAUGUCACAAGCUUUUUGUUCGUCUUAUAAUUAACCCAUGUCAC [Stov1/13-B3] (Eterna round: R97, puzzle: Sensor, turn-off variant 1) | – | – | – | 44.9 | – | 52.7
CUUAGACAUGAGGAUCACCCAUGUGAGGAUAUGAUACAAUCAUACUAACAUAAUCACAUCAGAAGGCACAUAUG [Mat - Mod of JL D68] (puzzle: Exclusion 1) | 34.6 | 55.8 | 52.4 | – | – | –
CUUAGACAUGAGGAUCACCCAUGUGAGGAUAUGAUGAGGAUAAGGAAGGAAGAAGGAAUCAGAAGGCACAUAUG [Mat - Mod of Hyphema D27] (puzzle: Exclusion 1) | 102 | 69.4 | 74.2 | – | – | –
CUUAGACAUGAGGAUCACCCAUGUGAGGAUAUGAUGCGAAUAAGGAAGGAAGAAAGCAUCAGAAGGCACAUAUG [Mat - Mod of Hyphema D25] (puzzle: Exclusion 1) | 161 | 139 | 104 | – | – | –
CUUCGACAUGAGGAUCACCCAUGUCAGGAUAUUGUGUAUCUGGUUUUUUACAGAUAGACAAGAAGGGAUGUGUU [LRO-Excl1-01] (puzzle: Exclusion 1) | – | 25.2 | – | – | – | –
CUUGUCCGAGGAUAUAUUUUGUGAUACAUGAGGAUCACCCAUGUUAUAAGAUGGAUAUAAAUAGAAGGCGGACGAG [Mat - Exclusion 5 - JL mod - D69] (puzzle: Exclusion 5) | 35.7 | 44 | 47 | – | – | –
CUUGUGUAAGGAUAUGCCUGGCCGUGAGGCCAGAUUGAAUAGCAGAAGGUACAUGAGGAUCACCCAUGUACGGG [jl-ex4-4.60 ViennaUCT mod] (Eterna round: R97, puzzle: Exclusion 4) | – | – | – | 256 | – | 376
CUUGUGUGAGGAUAUGAAUUGCCUGGACAUACAGGCUCCUGUCAGAAGGCACAUGAGGAUCACCCAUGUGGGCA [Andiriso] (Eterna round: R97, puzzle: Exclusion 4) | – | – | – | 98.1 | – | 411
CUUGUUUAUGUAGGAUAUGCCUGGCGUGCCUUUGCAGAAGGACAUGAGGAUCACCCAUGUAACAUGAGGCUUACCCUUGUCGCC [salish99_ExNG1_r04_119] (Eterna round: R96, puzzle: Exclusion NG 1) | – | – | – | 80.6 | 56.1 | 68.9
CUUGUUUAUGUAGGAUAUGCCUGGCGUGCCUUUGCAGAAGGACAUGAGGAUCACCCAUGUGGUAUGAGGCUUACCCUUGUCGCC [salish99_ExNG1_r04_121] (Eterna round: R96, puzzle: Exclusion NG 1) | – | – | – | 30.6 | 21.1 | 28.9
CUUUCGUCUGUGGGUGGUGACAUGAGGAUCACCCAUGUUUUGCUCGUCUUGUCCCGGGCCCGGCGCCCGGGCCCGGG [-38.7, -62.5, A 8%] (Eterna round: R97, puzzle: Sensor, turn-off variant 1) | – | – | – | 1210 | – | 1340
CUUUUGUGAGGAUAUCAGUAGUAAAAAAAUAAAAUUACUACUUAGAAGGCACAUGAGGAUCACCCAUGUUCCUC [salish99_ex4_r3_030] (puzzle: Exclusion 4) | – | 25.4 | – | – | – | –
CUUUUGUGAGGAUAUCAGUAGUAAAAAAAUAAUAUUACUACUGAGAAGGCACAUGAGGAUCACCCAUGUUCCUC [salish99_ex4_r3_024] (puzzle: Exclusion 4) | – | 38.4 | – | – | – | –
